In publication PMC11035800:

Experiments:
RUNX1 = RUNX1 (UniProt Q01196); assay: anti-MYC IP, anti-RUNX1 blot; conditions: reference: MYC-CARM1 wild type
CARM1 = CARM1 (UniProt Q86X55); assay: anti-HA co-IP, anti-MYC blot; conditions: reference: MYC-CARM1 wild type; sites Y149
UniProt Q86X55, sequence (Q86X55 whole entry Y149F): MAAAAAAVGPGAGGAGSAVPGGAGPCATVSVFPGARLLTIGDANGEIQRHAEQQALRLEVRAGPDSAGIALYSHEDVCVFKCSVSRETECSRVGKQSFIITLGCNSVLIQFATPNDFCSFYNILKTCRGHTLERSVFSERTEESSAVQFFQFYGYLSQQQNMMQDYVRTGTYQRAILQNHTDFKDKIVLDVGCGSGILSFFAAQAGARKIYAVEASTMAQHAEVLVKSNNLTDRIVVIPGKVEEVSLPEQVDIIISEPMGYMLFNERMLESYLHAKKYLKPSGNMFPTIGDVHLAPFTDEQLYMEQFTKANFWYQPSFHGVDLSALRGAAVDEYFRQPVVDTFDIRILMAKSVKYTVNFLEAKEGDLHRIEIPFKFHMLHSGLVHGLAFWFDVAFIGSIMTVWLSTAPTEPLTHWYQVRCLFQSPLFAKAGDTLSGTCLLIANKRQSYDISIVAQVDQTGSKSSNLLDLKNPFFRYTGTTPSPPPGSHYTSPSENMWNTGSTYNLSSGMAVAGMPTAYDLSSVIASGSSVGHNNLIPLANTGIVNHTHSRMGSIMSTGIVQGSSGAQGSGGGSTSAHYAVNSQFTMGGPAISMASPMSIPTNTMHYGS

binding against the reference (RUNX1; sites Y149)	binding against the reference (CARM1)	binding against the reference (RUNX1; sites Y334)	Substance
lost	weaker	–	CARM1 (from UniProt Q86X55) MYC-CARM1 Y149F
–	–	lost	CARM1 (from UniProt Q86X55) MYC-CARM1 Y334F
